In patent US20160304571:

Tests used:
[1] = biological target: Lys29-linked diubiquitin, P0CG48
[2] = biological target: Lys6-linked diubiquitin, P0CG48
[3] = biological target: Lys63-linked diubiquitin (enzymatically assembled), P0CG48
Sequence of Lys63-linked diubiquitin (enzymatically assembled), P0CG48 (P0CG48 whole entry, looked up): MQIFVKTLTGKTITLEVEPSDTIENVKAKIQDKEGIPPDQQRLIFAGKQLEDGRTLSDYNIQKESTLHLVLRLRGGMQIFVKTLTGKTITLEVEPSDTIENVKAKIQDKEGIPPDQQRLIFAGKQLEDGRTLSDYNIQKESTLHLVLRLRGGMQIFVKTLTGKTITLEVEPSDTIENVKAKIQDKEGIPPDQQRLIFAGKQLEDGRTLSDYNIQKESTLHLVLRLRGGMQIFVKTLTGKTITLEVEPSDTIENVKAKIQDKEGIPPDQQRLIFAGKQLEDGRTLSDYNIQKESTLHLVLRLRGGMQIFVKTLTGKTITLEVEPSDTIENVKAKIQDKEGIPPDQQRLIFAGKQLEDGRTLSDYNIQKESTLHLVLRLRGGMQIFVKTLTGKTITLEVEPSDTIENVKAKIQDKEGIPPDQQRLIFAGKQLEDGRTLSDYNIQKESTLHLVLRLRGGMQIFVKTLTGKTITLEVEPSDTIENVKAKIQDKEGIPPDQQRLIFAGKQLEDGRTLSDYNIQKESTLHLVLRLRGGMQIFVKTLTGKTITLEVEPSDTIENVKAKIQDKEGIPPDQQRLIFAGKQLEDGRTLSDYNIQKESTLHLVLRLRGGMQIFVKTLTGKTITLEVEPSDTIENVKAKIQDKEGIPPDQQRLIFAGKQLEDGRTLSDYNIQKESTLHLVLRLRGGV

Sequence of Lys29-linked diubiquitin, P0CG48 (P0CG48 whole entry, looked up): as above
Sequence of Lys6-linked diubiquitin, P0CG48 (P0CG48 whole entry, looked up): as above

Protein | cleavage in in vitro deubiquitinase assay (SDS-PAGE, silver stain) [1] | cleavage in in vitro deubiquitinase assay (SDS-PAGE, silver stain) [2] | cleavage in in vitro deubiquitinase assay (SDS-PAGE, silver stain) [3] | fold better substrate than Lys63-linked diubiquitin [1] | specificity constant (kcat/Km), quantitative western blot [1] | specificity constant (kcat/Km), fluorescence anisotropy [3] | specificity constant (kcat/Km), quantitative western blot [3]
USP21 (protein) SDDKMAHHTLLLGSGHVGLRNLGNTCFLNAVLQCLSSTRPLRDFCLRRDFRQEVPGGGRAQELTEAFADVIGALWHPDSCEAVNPTRFRAVFQKYVPSFSGYSQQDAQEFLKLLMERLHLEINRRGRRAPPILANGPVPSPPRRGGALLEEPELSDDDRANLMWKRYLEREDSKIVDLFVGQLKSCLKCQACGYRSTTFEVFCDLSLPIPKKGFAGGKVSLRDCFNLFTKEEELESENAPVCDRCRQKTRSTKKLTVQRFPRILVLHLNRFSASRGSIKKSSVGVDFPLQRLSLGDFASDKAGSPVYQLYALCNHSGSVHYGHYTALCRCQTGWHVYNDSRVSPVSENQVASSEGYVLFYQLMQEPPRCL | rapidly cleaves all chain types tested | rapidly cleaves all chain types tested | rapidly cleaves all chain types tested |  |  |  | 
Cezanne (protein) PPSFSEGSGGSRTPEKGFSDREPTRPPRPILQRQDDIVQEKRLSRGISHASSSIVSLARSHVSSNGGGGGSNEHPLEMPICAFQLPDLTVYNEDFRSFIERDLIEQSMLVALEQAGRLNWWVSVDPTSQRLLPLATTGDGNCLLHAASLGMWGFHDRDLMLRKALYALMEKGVEKEALKRRWRWQQTQQNKESGLVYTEDEWQKEWNELIKLASSEPRMHLGTNGANCGGVESSEEPVYESLEEFHVFVLAHVLRRPIVVVADTMLRDSGGEAFAPIPFGGIYLPLEVPASQCHRSPLVLAYDQAHFSALVSMEQKENTKEQAVIPLTDSEYKLLPLHFAVDPGKGWEWGKDDSDNVRLASVILSLEVKLHLLHSYMNVKWIPLSSDAQAPLAQ | also did not cleave Lys29 linkages | did not cleave Lys6-linked diubiquitin |  |  |  |  | 
A20 (protein) MAEQVLPQALYLSNMRKAVKIRERTPEDIFKPTNGIIHHFKTMHRYTLEMFRTCQFCPQFREIIHKALIDRNIQATLESQKKLNWCREVRKLVALKTNGDGNCLMHATSQYMWGVQDTDLVLRKALFSTLKETDTRNFKFRWQLESLKSQEFVETGLCYDTRNWNDEWDNLIKMASTDTPMARSGLQYNSLEEIHIFVLCNILRRPIIVISDKMLRSLESGSNFAPLKVGGIYLPLHWPAQECYRYPIVLGYDSHHFVPLVTLKDSGPEIRAVPLVNRDRGRFEDLKVHFLTDPENEMKEKLLKEYLMVIEIPVQGWDHGTTHLINAAKLDEANLPKEINLVDDYFELVQHEYKKWQENSEQGRRE | also did not cleave Lys29 linkages | did not cleave Lys6-linked diubiquitin |  |  |  |  | 
BAP1 (protein) MNKGWLELESDPGLFTLLVEDFGVKGVQVEEIYDLQSKCQGPVYGFIFLFKWIEERRSRRKVSTLVDDTSVIDDDIVNNMFFAHQLIPNSCATHALLSVLLNCSSVDLGPTLSRMKDFTKGFSPESKGYAIGNAPELAKAHNSHARPEPRHLPEKQNGLSAVRTMEAFHFVSYVPITGRLFELDGLKVYPIDHGPWGEDEEWTDKARRVIMERIGLATAGEPYHDIRFNLMAVVPDRRIKYEARLHVLKVNRQTVLEALQQLIRVTQPELIQTHKSQESQLPEESKSASNKSPLVLEANRAPAASEGNHTDGAEEAAGSCAQAPSHSPPNKPKLVVKPPGSSLNGVHPNPTPIVQRLPAFLDNHNYAKSPMQEEEDLAAGVGRSRVPVRPPQQYSDDEDDYEDDEEDDVQNTNSALRYKGKGTGKPGALSGSADGQLSVLQPNTINVLAEKLKESQKDLSIPLSIKTSSGAGSPAVAVPTHSQPSPTPSNESTDTASEIGSAFNSPLRSPIRSANPTRPSSPVTSHISKVLFGEDDSLLRVDCIRYNRAVRDLGPVISTGLLHLAEDGVLSPLALTEGGKGSSPSIRPIQGSQGSSSPVEKEVVEATDSREKTGMVRPGEPLSGEKYSPKELLALLKCVEAEIANYEACLKEEVEKRKKFKIDDQRRTHNYDEFICTFISMLAQEGMLANLVEQNISVRRRQGVSIGRLHKQRKPDRRKRSRPYKAKRQ | failed to cleave | failed to cleave |  |  |  |  | 
AMSH (protein) MSDHGDVSLPPEDRVRALSQLGSAVEVNEDIPPRRYFRSGVEIIRMASIYSEEGNIEHAFILYNKYITLFIEKLPKHRDYKSAVIPEKKDTVKKLKEIAFPKAEELKAELLKRYTKEYTEYNEEKKKEAEELARNMAIQQELEKEKQRVAQQKQQQLEQEQFHAFEEMIRNQELEKERLKIVQEFGKVDPGLGGPLVPDLEKPSLDVFPTLTVSSIQPSDCHTTVRPAKPPVVDRSLKPGALSNSESIPTIDGLRHVVVPGRLCPQFLQLASANTARGVETCGILCGKLMRNEFTITHVLIPKQSAGSDYCNTENEEELFLIQDQQGLITLGWIHTHPTQTAFLSSVDLHTHCSYQMMLPESVAIVCSPKFQETGFFKLTDHGLEEISSCRQKGFHPHSKDPPLFCSCSHVTVVDRAVTITDLR | inactive against Lys6- and Lys29-linked diubiquitin | inactive against Lys6- and Lys29-linked diubiquitin | cleaves Lys63-linked diubiquitin under identical reaction conditions with high activity |  |  |  | 
ubiquitin C-terminal hydrolase-L3 (UCH-L3) (protein) MEGQRWLPLEANPEVTNQFLKQLGLHPNWQFVDVYGMDPELLSMVPRPVCAVLLLFPITEKYEVFRTEEEEKIKSQGQDVTSSVYFMKQTISNACGTIGLIHAIANNKDKMHFESGSTLKKFLEESVSMSPEERARYLENYDAIRVTHETSAHEGQTEAPSIDEKVDLHFIALVHVDGHLYELDGRKPFPINHGETSDETLLEDAIEVCKKFMERDPDELRFNAIALSAA | failed to cleave | failed to cleave |  |  |  |  | 
USP5 (protein) MAELSEEALLSVLPTIRVPKAGDRVHKDECAFSFDTPESEGGLYICMNTFLGFGKQYVERHFNKTGQRVYLHLRRTRRPKEEDPATGTGDPPRKKPTRLAIGVEGGFDLSEEKFELDEDVKIVILPDYLEIARDGLGGLPDIVRDRVTSAVEALLSADSASRKQEVQAWDGEVRQVSKHAFSLKQLDNPARIPPCGWKCSKCDMRENLWLNLTDGSILCGRRYFDGSGGNNHAVEHYRETGYPLAVKLGTITPDGADVYSYDEDDMVLDPSLAEHLSHFGIDMLKMQKTDKTMTELEIDMNQRIGEWELIQESGVPLKPLFGPGYTGIRNLGNSCYLNSVVQVLFSIPDFQRKYVDKLEKIFQNAPTDPTQDFSTQVAKLGHGLLSGEYSKPVPESGDGERVPEQKEVQDGIAPRMFKALIGKGHPEFSTNRQQDAQEFFLHLINMVERNCRSSENPNEVFRFLVEEKIKCLATEKVKYTQRVDYIMQLPVPMDAALNKEELLEYEEKKRQAEEEKMALPELVRAQVPFSSCLEAYGAPEQVDDFWSTALQAKSVAVKTTRFASFPDYLVIQIKKFTFGLDWVPKKLDVSIEMPEELDISQLRGTGLQPGEEELPDIAPPLVTPDEPKGSLGFYGNEDEDSFCSPHFSSPTSPMLDESVIIQLVEMGFPMDACRKAVYYTGNSGAEAAMNWVMSHMDDPDFANPLILPGSSGPGSTSAAADPPPEDCVTTIVSMGFSRDQALKALRATNNSLERAVDWIFSHIDDLDAEAAMDISEGRSAADSISESVPVGPKVRDGPGKYQLFAFISHMGTSTMCGHYVCHIKKEGRWVIYNDQKVCASEKPPKDLGYIYFYQRVAS | rapidly cleaves all chains types tested | rapidly cleaves all chains types tested | rapidly cleaves all chains types tested |  |  |  | 
TRABID (protein) LEVDFKKLKQIKNRMKKTDWLFLNACVGVVEGDLAAIEAYKSSGGDIARQLTADEVRLLNRPSAFDVGYTLVHLAIRFQRQDMLAILLTEVSQQAAKCIPAMVCPELTEQIRREIAASLHQRKGDFACYFLTDLVTFTLPADIEDLPPTVQEKLFDEVLDRDVQKELEEESPIINWSLELATRLDSRLYALWNRTAGDCLLDSVLQATWGIYDKDSVLRKALHDSLHDCSHWFYTRWKDWESWYSQSFGLHFSLREEQWQEDWAFILSLASQPGASLEQTHIFVLAHILRRPIIVYGVKYYKSFRGETLGYTRFQGVYLPLLWEQSFCWKSPIALGYTRGHFSALVAMENDGYGNRGAGANLNTDDDVTITFLPLVDSERKLLHVHFLSAQELGNEEQQEKLLREWLDCCVTEGGVLVAMQKSSRRRNHPLVTQMVEKWLDRYRQIRPCTSLS | cleaves Lys29 linkages more rapidly than Lys63 linkages | did not cleave Lys6-linked diubiquitin | cleaves Lys29 linkages more rapidly than Lys63 linkages | 40-fold better substrate | 1.0 (±0.2)×10^5 M^-1 s^-1 | 1.7 (±2.0)×10^3 M^-1 s^-1 | 2.5 (±0.4)×10^3 M^-1 s^-1
CYLD (protein) GLEIMIGKKKGIQGHYNSCYLDSTLFCLFAFSSVLDTVLLRPKEKNDVEYYSETQELLRTEIVNPLRIYGYVCATKIMKLRKILEKVEAASGFTSEEKDPEEFLNILFHHILRVEPLLKIRSAGQKVQDCYFYQIFMEKNEKVGVPTIQQLLEWSFINSNLKFAEAPSCLIIQMPRFGKDFKLFKKIFPSLELNITDLLEDTPRQCRICGGLAMYECRECYDDPDISAGKIKQFCKTCNTQVHLHPKRLNHKYNPVSLPKDLPDWDWRHGCIPCQNMELFAVLCIETSHYVAFVKYGKDDSAWLFFDSMADRDGGQNGFNIPQVTPCPEVGEYLKMSLEDLHSLDSRRIQGCARRLLCDAYMCMYQSPTMSLYK | shows little or no activity against the Lys6 and Lys29 linkage | shows little or no activity against the Lys6 and Lys29 linkage | efficiently cleaves its preferred Lys63 linkage |  |  |  | 
